In article PMC4164784, “4E-BPs require non-canonical 4E-binding motifs and a lateral surface of eIF4E to repress translation” (Nature Communications, 2014):

T1: SHN-eIF4E (full length, II-AA mutant) (Drosophila melanogaster, UniProt P48598-2 1-248, Ile96 to Ala (II-AA) | Ile112 to Ala (II-AA))
T1 construct: eIF4E, Drosophila melanogaster; also called SHN-tagged eIF4E II-AA; not shown: Strep-NusA-His (SHN), N-terminal, kept
T1 sequence (looked up): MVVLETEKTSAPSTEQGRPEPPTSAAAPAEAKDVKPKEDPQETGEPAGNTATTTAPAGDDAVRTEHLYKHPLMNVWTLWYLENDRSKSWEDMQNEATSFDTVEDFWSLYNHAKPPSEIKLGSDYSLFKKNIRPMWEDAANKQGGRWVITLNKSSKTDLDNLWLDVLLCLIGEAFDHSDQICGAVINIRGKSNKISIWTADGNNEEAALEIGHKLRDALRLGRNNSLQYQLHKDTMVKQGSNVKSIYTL

T2: SHN-eIF4E (full length, WT) (Drosophila melanogaster, UniProt P48598-2 1-248)
T2 construct: eIF4E, Drosophila melanogaster; also called SHN-tagged eIF4E; SNH-tagged eIF4E; not shown: Strep-NusA-His (SHN), N-terminal, kept
T2 sequence (looked up): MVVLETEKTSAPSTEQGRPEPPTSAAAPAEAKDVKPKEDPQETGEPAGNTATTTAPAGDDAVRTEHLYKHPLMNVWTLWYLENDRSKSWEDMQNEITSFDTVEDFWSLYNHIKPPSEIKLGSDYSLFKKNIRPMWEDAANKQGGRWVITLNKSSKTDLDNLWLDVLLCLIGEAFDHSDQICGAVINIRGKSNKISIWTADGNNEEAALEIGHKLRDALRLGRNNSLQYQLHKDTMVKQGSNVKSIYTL

B1: GST-CUP (residues 311–440) (domain or fragment, Drosophila melanogaster, UniProt Q9VMA3 311-440, looked up)
chain: VRPTTAPVVSSKPVKSYTRSRLMDIRNGMFNALMHRSKESFVMPRIATCDDIELEGRLRRMNIWRTSDGTRFRTRSTTANLNMNNNNNNECMPAFFKNKNKPNLISDESIIQSQPPQPQTEFQDPAIVNQ
notes: CUP, Drosophila melanogaster, residues 311–440; may be the same construct as m25; source: E. coli BL21 (DE3) STAR, coexpressed with SHN-eIF4E, complex purified on glutathione agarose
B2: MBP-Thor (full length, WT) (natural protein, Drosophila melanogaster, UniProt Q9XZ56 1-117, looked up)
chain: MSASPTARQAITQALPMITRKVVISDPIQMPEVYSSTPGGTLYSTTPGGTKLIYERAFMKNLRGSPLSQTPPSNVPSCLLRGTPRTPFRKCVPVPTELIKQTKSLKIEDQEQFQLDL
notes: Thor, Drosophila melanogaster; not shown: MBP, N-terminal, kept

Columns and labels:
Conditions in all cases: both partners purified
[1] = biological target: T1, SHN-eIF4E (full length, II-AA mutant); assay: pull-down; preassembled complexes of SHN-eIF4E (WT or II-AA) with GST-eIF4G, GST-CUP, GST-Thor or GST-4E-T (coexpressed, purified on glutathione agarose) recovered on Strep-Tactin beads
[2] = biological target: T2, SHN-eIF4E (full length, WT); assay: as above
[3] = biological target: T2, SHN-eIF4E (full length, WT); assay: pull-down; competition: purified SHN-eIF4E–GST-eIF4G complex with fivefold molar excess of purified MBP-Thor, 30 min at 4 °C; Strep-Tactin beads

Row | Binder | binding result [1] | binding result [2] | binding result [3]
1 | B1 | binds | binds | –
2 | B2 | – | – | binds
